Results published in patent US20190275084A1 (KYMAB, published 2019).

B1: 2D10 (human) (antibody, human IgG4 S228P, kappa, V domains shown)
VH: EVQLVESGGGLVQPGGSLRLSCAASGFTFSNYAMNWVRQAPGKGLEWVSTISGSGGATRYADSVKGRFTISRDNSRNTVYLQMNSLRVEDTAVFYCTKDRLIMATVRGPYYYGMDVWGQGTTVTVSS
VL: DIQMTQSPSSLSASVGDRVTITCRASQSISSYLNWYQQKPGKAPNLLIYAASSLQSGVPSRFSGSGSETDFTLTISSLQPEDFATYYCQQSHSVSFTFGPGTKVDIKR
notes: Recombinant fully human IgG4-PE/kappa; also called 02D10 IgG4-PE; 2D10 IgG4PE
B2: 2D10 (hybridoma) (antibody, V domains shown)
VH: B1 VH
VL: DIQMTQSPSSLSASVGDRVTITCRASQSISSYLNWYQQKPGKAPNLLIYAASSLQSGVPSRFSGSGSETDFTLTISSLQPEDFATYYCQQSHSVSFTFGPGTKVDIK
notes: Purified from hybridoma supernatant as a murine/human chimeric antibody (human variable domains, mouse constant regions); also called 02D10
B3: 10A07 (human) (antibody, V domains shown)
VH: EVQLVESGGVLVQPGGSLRLSCAASGFTFSSYIMTWVRQAPGKGLEWVSGISGSGGGTYYADSMKGRFTISRDNSKNTLYLQMNSLRVEDTAVYYCAKDRLGPITLVRGGYYYGMDVWGQGTTVTVSS
VL: DIQMTQSPSSLSASVGDRVTITCRASQSISDYLNWYQQKPGKAPKFLIYAASSLQSGVPSRFSGSGSGTDFTLTVSSLQPEDFATYYCQQSYSTPRTFGQGTRVEIKR
notes: also called 10A07 IgG4PE; 10A7 IgG4-PE
B4: 10A07 (hybridoma) (antibody, V domains shown)
VH: B3 VH
VL: DIQMTQSPSSLSASVGDRVTITCRASQSISDYLNWYQQKPGKAPKFLIYAASSLQSGVPSRFSGSGSGTDFTLTVSSLQPEDFATYYCQQSYSTPRTFGQGTRVEIK
notes: Purified from hybridoma supernatant as a murine/human chimeric antibody (human variable domains, mouse constant regions); also called 10A7
B5: 19H01 (hybridoma) (antibody, V domains shown)
VH: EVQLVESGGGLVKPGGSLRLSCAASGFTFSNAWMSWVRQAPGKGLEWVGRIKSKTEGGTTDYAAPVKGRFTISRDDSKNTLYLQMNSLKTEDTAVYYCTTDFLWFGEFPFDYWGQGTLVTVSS
VL: DIQMTQSPSSLSASVGDRVTITCRASQGISNYLAWYQQKPGKIPKLLIYAASTLQSGVPSRFSGSGSGTDFTLTISSLQPEDVATYYCQKYNSAPRTFGQGTKVEIK
notes: Purified from hybridoma supernatant as a murine/human chimeric antibody (human variable domains, mouse constant regions)
B6: 9H04 (hybridoma) (antibody, V domains shown)
VH: QVQLVESGGGLVKPGGSLRLSCAASRFTLSDYYMTWIRQAPGKGLEWVSYISSSGNTIYYADSVKGRFTISRDNAKNSLYLQMNSLRAEDTAVYYCARDLSGSYWDYYYGMDVWGQGTTVTVSS
VL: AIQLTQSPSSLSTSVGDRVTIACRASQGINNALAWYQQKPGKAPKLLIYDASSLESGVPSRFSGSGSGTDFTLTISSLQPEDFATYYCQQFNSYPRTFGQGTKVEIK
notes: Purified from hybridoma supernatant as a murine/human chimeric antibody (human variable domains, mouse constant regions); also called 09H04

Legend:
[1] = biological target: T1, Recombinant Human OX40L (Leader sequence, Isoleucine Zipper and FLAG Sequence Included) (human); assay: HTRF ligand/receptor neutralisation: antibody titrated against biotinylated hOX40L; the blocked ligand is OX40RFc-AF647; streptavidin cryptate detection
T1 construct: It was used biotinylated in the HTRF assays and unlabelled in SPR and in the IL-2 release assay; also called hOX40L; recombinant hOX40L
Procedure: Fully human purified IgG or other inhibitor were tested in order to establish the clone potency as measured by IC₅₀ values in the assay. Antibodies recombinantly expressed and purified were titrated by diluting in HTRF assay buffer and 5 μL of this titration transferred to a white 384 well low volume non-binding surface polystyrene plate (Greiner). Biotinylated OX40L was diluted in HTRF assay buffer to a working concentration of 2.4 nM and 5 μL added. […] Streptavidin cryptate (CISBIO) was diluted in HTRF assay buffer to working concentration of 1:100 and 5 μL added to all wells of the plate. Plates were covered, protected from light and incubated at room temperature for 3 hrs prior to reading time resolved fluorescence at 620 nm and 665 nm emission wavelengths using an EnVision plate reader (Perkin Elmer). Data were analysed by calculating delta F as described in Equation 4 and percentage of receptor for each sample according to Equation 5 or in some cases Equation 6. IC₅₀ values were determined using GraphPad Prism software by curve fitting using a four-parameter logistic equation (Equation 7) (FIG. 1).

[2] = biological target: T1, Recombinant Human OX40L (Leader …); assay: cell-based or functional assay
[3] = biological target: T1, Recombinant Human OX40L (Leader …); assay: HTRF receptor neutralisation: antibody titrated against biotinylated hOX40L and OX40RFc-AF647; mean +/- SEM of three experiments
[4] = biological target: T2, Recombinant Rhesus OX40L (Leader Sequence, FLAG and Isoleucine zipper included) (Rhesus (Macaca mulatta)); assay: SPR (ProteOn XPR36), antibody captured, rhesus OX40L at 256 nM, 25 C; CNROR = cannot resolve off-rate
T2 construct: also called RhsOX40L; Rhesus monkey OX40L
Procedure: (§1) SPR analysis was carried out using the ProteOn™ XPR36 Array System (BioRad). Anti-mouse IgG (GE Healthcare BR-1008-38) was immobilised on a GLM biosensor surface using amine coupling, the surface was then blocked using 1 M ethanolamine. Test antibodies were captured on this surface and recombinant hOX40L (human and rhesus) were used at a single concentration of 256 nM, binding sensorgrams were double referenced using a buffer injection (i.e. 0 nM) to remove baseline drift and injection artefacts. Apparent affinities for the OX40L-antibody interaction were determined using the 1:1 model inherent to the ProteOn XPR36 analysis software. The assay was run using HBS-EP (Teknova) as running buffer and carried out at 25° C.

[5] = biological target: T1, Recombinant Human OX40L (Leader …); assay: SPR (ProteOn XPR36), apparent affinity, antibody captured on anti-mouse IgG, hOX40L at 256 nM, 1:1 model, 25 C
Procedure: as §1

T1 sequence (chain, as listed by the source limits assumed): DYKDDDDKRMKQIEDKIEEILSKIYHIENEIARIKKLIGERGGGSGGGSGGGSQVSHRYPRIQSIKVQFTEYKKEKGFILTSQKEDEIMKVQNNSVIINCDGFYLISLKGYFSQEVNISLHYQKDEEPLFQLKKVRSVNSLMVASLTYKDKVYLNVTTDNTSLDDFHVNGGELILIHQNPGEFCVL
T2 sequence (chain, as listed by the source limits assumed): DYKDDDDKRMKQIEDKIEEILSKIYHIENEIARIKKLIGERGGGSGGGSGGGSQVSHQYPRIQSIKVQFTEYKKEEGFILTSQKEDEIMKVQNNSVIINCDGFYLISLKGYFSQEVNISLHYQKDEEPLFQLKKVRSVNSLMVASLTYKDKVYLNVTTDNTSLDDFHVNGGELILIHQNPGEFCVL

| Binder | IC50 (read off the curve) [1] [pM] | Primary T-cell Assay IC50 nM (recombinant OX40L induced IL2 release from primary human T-cells) [2] [nM] | IC50 [3] [nM] | binding result [4] | Kd [5] [nM] |
| --- | --- | --- | --- | --- | --- |
| B1 | ~800 | 0.81 | 0.75 | binds |  |
| B2 |  |  |  | binds |  |
| B3 | ~1000 | 0.83 | 1.2 | binds |  |
| B4 |  |  |  | binds |  |
| B5 |  |  |  |  | 2.2 |
| B6 |  |  |  |  | 5.3 |
